The values below come from article PMC4297576.

As usually defined, the Kd is the equilibrium constant for the complex coming apart.

Assay [1] deals with Cdk2/cyclin A complex (T160-phosphorylated full-length human Cdk2 and truncated human cyclin A2, residues 173-432) (human) (UniProt P24941).
Assay [2] shares this target. Kind of assay: ITC. In general terms: Isothermal titration calorimetry measures the heat released or taken up as one component is titrated into another.

Sequence of peptide corresponding to sub-domain D1C (p21 residues 139-160) (P38936 139-160): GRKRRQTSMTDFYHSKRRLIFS

With “p21-KIDC-Y77E (from UniProt P38936 25-164) (domain or fragment)”, in assay [1], the IC50 of inhibition of Cdk2/cyclin A kinase activity, substrate Histone H1 stood at 55.4 nM and the IC50 of inhibition of Cdk2/cyclin A kinase activity, substrate Rb-C came to 22.8 nM.
On to “peptide corresponding to sub-domain D1C (p21 residues 139-160) (from UniProt P38936 139-160)”, for which the Kd in assay [2] was 208 nM.
Take “p21-FL-Y77E (from UniProt P38936 1-164) (natural protein)”: in assay [1], the IC50 of inhibition of Cdk2/cyclin A kinase activity, substrate Histone H1 was found to be 23.4 nM and the IC50 of inhibition of Cdk2/cyclin A kinase activity, substrate Rb-C is 19.9 nM.
In assay [1], “p21-KIDN-Y77E (from UniProt P38936 9-84) (domain or fragment)” came in with an IC50 of inhibition of Cdk2/cyclin A kinase activity, substrate Histone H1 of 68.1 nM and an IC50 of inhibition of Cdk2/cyclin A kinase activity, substrate Rb-C of 46.6 nM.
